The values that follow come from patent publication US20060292145A1 (JAPAN SCIENCE AND TECHNOLOGY, published 2006).

This assay addresses T1, human interleukin-18 (human, UniProt Q14116 37-193).
T1 construct: Immobilised on plates in the ELISAs; also called human IL-18; IL-18
T1 sequence (looked up): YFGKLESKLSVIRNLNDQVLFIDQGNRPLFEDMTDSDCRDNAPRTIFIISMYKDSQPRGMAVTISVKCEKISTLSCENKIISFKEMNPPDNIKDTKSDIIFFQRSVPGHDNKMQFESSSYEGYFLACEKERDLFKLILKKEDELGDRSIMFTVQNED
The assay can be described thus: phage ELISA, scFv-presenting phage on immobilised human IL-18 (HSA as comparison), anti-M13 detection, A405. The procedure:
ELISA for screening separated clones was carried out by immobilizing human IL-18 on an ELISA plate. Specifically, 2 μg/ml of human IL-18 and 2.5 μg/ml of human serum albumin (HSA) were put in a 40 μL/well ELISA plate (Nunc), allowed to stand for 16 hours at 4° C., and then immobilized on the plate. For blocking, 400 μL/well of PBS solution containing 0.5% BSA, 0.5% gelatin, and 5% skim milk was put in the ELISA plate, and then allowed to stand for 2 hours at 4° C.
Next, into the ELISA plate, 40 μL/well of sample solution containing an scFV-presenting phage was poured, and the mixture was allowed to react. Thereafter, the sample solution was removed, and the product was washed 5 times by using a cleaning liquid. Subsequently, to the immobilized scFv phage, a biotin-labeled anti-M13 monoclonal antibody (Pharmacia biotech) was added, and the mixture was allowed to react with an alkaline phosphatase (AP)-labeled anti-mouse IgG antibody serving as a secondary antibody. The reaction liquid was washed 5 times by using a cleaning liquid.
On the technique in general: ELISA stands for enzyme-linked immunosorbent assay.

B1: human anti-human IL-18 scFv fragment h18-108 (scFv, V domains shown)
VH: QVQLVQSGAEVRRPGASVRVSCKASGYTFTSHYIHWVRQAPGQGLEWVAIINPSDGRTDYAQKFQGRVTVTRDTSASSVYMGISSLRSEDTAMYYCARTARGFSYATDWGQGTLVTVSS
VL: SYELTQPPSVSVSPGQTARITCSGDALPKKYAYWYQQKPGQAPVLVIYKDSERPSGIPERFSGSSSGTTVTLTISGVQAEDEADYYCQSADSSGTYVVFGGGTQLTVL
notes: Expressed in E. coli from pCANTAB5E and purified on anti-E tag antibody; By gel filtration 90% monomer, 10% dimer
For B1, the binding result was “binds”.
